Test results taken from patent US20250304670A1 (AstraZeneca / MedImmune, published 2025).
Residue numbers refer to the chain shown, from its start. Names may count otherwise.

B1: Abet0144 scFv (scFv, V domains shown, not shown: small tags and cut ends)
VH: EVQLLESGGGLVQPGGSLRLSCAASGFTFSVYTMWWVRQAPGKGLEWVSVIGSSGGTTVYADSVKGRFTISRDNSKNTLYLQMNSLRAEDTAVYYCAREWMDHSRPYYYYGMDVWGQGTLVTVSS
VL: QSVLTQPPSVSVSPGQTASITCSGHNLEDKFASWYQQKSGQSPVLVIYRDDKRPSGIPERFSASNSGHTATLTISGTQATDEADYYCQAQDSTTRVFGGGTKLTVL
notes: non-germlined clone; VH is that of Abet0144-GL (no residues changed on germlining); also called most improved clone
B2: Human Amyloid Beta 17-42 truncated peptide (peptide)
peptide: LVFFAEDVGSNKGAIIGLMVGGVVIA
notes: synthetic, unlabelled; also called Abeta 17-42
B3: Human Amyloid Beta 1-16 truncated peptide (peptide)
peptide: DAEFRHDSGYEVHHQK
notes: synthetic, unlabelled; also called Abeta 1-16
B4: Abet0007 IgG2 (antibody, V domains shown)
VH: B1 VH with W100G, M101Q, D102Q, H103L, S104V
VL: B1 VL
notes: whole human IgG2 with human lambda light chain
B5: Abet0382 scFv (scFv, V domains shown, not shown: small tags and cut ends)
VH: EVQLLESGGGLVQPGGSLRLSCAASGFHFTNSIMWWVRQAPGKGLEWVSVIGSEAHRVTYADSVKGRFTISRDNSKNTLYLQMNSLRAEDTAVYYCAREWMDHSRPYYYYGMDVWGQGTLVTVSS
VL: B1 VL with Q1S, S2Y, V3E, T5I, S39P, S64T, Q88S, A89S, T93V
notes: purified scFv from E. coli
B6: Abet0380-GL IgG1-TM (antibody, V domains shown)
VH: EVQLLESGGGLVQPGGSLRLSCAASMGNFNYQTMWWVRQAPGKGLEWVSVIGKTNENIAYADSVKGRFTISRDNSKNTLYLQMNSLRAEDTAVYYCAREWMDHSRPYYYYGMDVWGQGTLVTVSS
VL: B1 VL with Q1S, S2Y, V3E, S39P, T80M, Q88S, A89S, S92T, T93V
notes: human IgG1 with the triple mutation L234F/L235E/P331S (TM), human lambda light chain; also called Abet0380-GL (germlined) IgG1-TM
B7: Abet0007 scFv (scFv, V domains shown, not shown: small tags and cut ends)
VH: B1 VH with W100G, M101Q, D102Q, H103L, S104V
VL: B1 VL
notes: purified scFv from E. coli (pCantab10.5); also called original lead; parent clone

Tests used:
[1] = molecular target: T1, Biotinylated Human Amyloid Beta 1-42 peptide (human, N-terminal biotin); assay: SPR (BIAcore T-100), scFv over biotinylated peptide on SA chip, 1:1 Langmuir fit
T1 construct: synthetic (rPeptide A1117 or Bachem H-5642); also called N-terminal biotin Abeta 1-42; synthetic biotinylated human Amyloid beta 1-42 peptide
Method: The chip surface was regenerated between cycles by a single 20 second injection of 10 mM Glycine pH 2.0 to remove scFv bound to the peptide.
A series of dilutions of each purified scFv (12.5-400 nM) were sequentially passed over the peptide surface for a sufficient amount of time to observe sensorgrams that could be fitted to an appropriate binding model with confidence. A zero-concentration buffer blank was subtracted from the main dataset to reduce the impact of any buffer artefacts or non-specific binding effects. An appropriate binding model was then fitted simultaneously to the data from each analyte titration using the BIAevaluation software.

[2] = molecular target: T1, Biotinylated Human Amyloid Beta 1-42 …; assay: HTRF epitope competition, purified scFv; competitor Abet0042 IgG
Method: The scFv with unique protein sequences were expressed in E. coli and purified by affinity chromatography followed by buffer exchange. […] The time resolved fluorescence was read after two hours incubation at room temperature.
Purified scFv were serially diluted in assay buffer containing 50 mM MOPS buffer pH 7.4 (Sigma, UK; cat: M9381), 0.4 M potassium fluoride (BDH Chemicals, USA; cat: 103444T), 0.1% fatty acid free bovine serum albumin (Sigma, UK; cat: A6003) and 0.1% Tween 20 (Sigma, UK; cat: P2287) using a Greiner 96 well U bottom plate (Greiner BioOne, Germany; cat: 650201). 5 μl of each dilution of scFv was transferred in duplicate to the assay plate (Costar® 384 well black shallow well, Corning Life Sciences; cat: 3676) using a MiniTrak™ (PerkinElmer, USA) liquid handling robot. […] The assay plates were sealed and incubated at room temperature for 1 hour. Streptavidin cryptate and anti-human Fc IgG XL665 were combined at 7 nM and 20 nM respectively in assay buffer and 5 μl of this solution were added to the assay plate.

Abet0007 IgG2 = molecular target: B4; assay: HTRF peptide competition: dilution series of unlabelled peptide against 5 nM biotinylated human Amyloid beta 1-42 peptide for 0.3 nM Abet0007 IgG2 (section 1.6)
Method: (§1) As described above, the purified sFab fragments that bound specifically to the Amyloid beta 1-42 peptide were converted to recombinant IgG. To test the specificity of these IgGs for binding to other human Amyloid beta peptides, a competition assay was developed. […] The competition of each peptide was assessed by detecting the loss of binding of the lead IgG to the biotinylated 1-42 peptide by measuring the fluorescence resonance energy transfer (FRET) between the IgG and biotinylated 1-42 Amyloid beta using streptavidin cryptate (CisBio International, France; cat: 610SAKLB) and anti-human Fc IgG XL665 (CisBio International, France; cat: 61HFCXLB) detection reagents.
(§2) Streptavidin cryptate and anti-human Fc IgG XL665 were combined at 7 nM and 5 nM respectively in assay buffer containing 50 mM MOPS pH 7.4 (Sigma, UK; cat: M9381), 0.4 M KF (BDH Chemicals, USA; cat: 103444T), 0.1% fatty acid free bovine serum albumin (Sigma, UK; cat: A6003) and 0.1% Tween 20 (v/v) (Sigma, UK; cat: P2287). 5 μl of this solution were added to the assay plate (Costar® 384 well black shallow well, Corning Life Sciences; cat: 3676). Amyloid beta peptides were serially diluted in assay buffer using a Greiner 96 well U bottom plate (Greiner BioOne, Germany; cat: 650201). 5 μl of each peptide dilution were transferred in duplicate to the assay plate using a MiniTrak™ (PerkinElmer, USA) liquid handling robot. […]

Abet0144-GL IgG1-TM = molecular target: T2, Abet0144-GL IgG1-TM; assay: TR-FRET peptide competition: dilution series of unlabelled peptide against 1.5 nM biotinylated human Amyloid beta 1-42 peptide for 0.28 nM Abet0144-GL IgG1-TM (section 2.10)
T2 construct: human IgG1 with the triple mutation L234F/L235E/P331S (TM), human lambda light chain; also called Abet0144-GL (germlined) IgG1-TM
Method: This involved the use of Europium cryptate labelled anti-human Fc IgG (CisBio International, France; cat: 61 HFCKLB) and XL665 labelled streptavidin (CisBio International, France; cat: 611SAXLB) TR-FRET detection reagents.
Experiments were set up in Costar 384 well shallow bottom microtitre plates. […] 5 μl of assay buffer only was added to the negative binding assay control wells. […] 5 μl per well of each test peptide serial dilution was then transferred onto the 384 well assay plate. 5 μl of assay buffer only was added to the total and negative binding assay control wells. […] Finally, a combined solution was prepared containing Europium cryptate labelled anti-human Fc (2.4 nM) and XL665 labelled streptavidin (60 nM). 5 μl per well of this solution was added to all wells of the 384 well assay plate such that the final concentrations of Europium cryptate labelled anti-human Fc and XL665 labelled streptavidin were 0.6 nM and 15 nM, respectively.

Abet0380-GL IgG1-TM = molecular target: B6; assay: HTRF (TR-FRET) peptide competition: dilution series of peptide (10 uM to 0.17 nM) against 1.5 nM N-terminal biotin Abeta 1-42 for 0.5 nM Abet0380-GL IgG1-TM (Example 6)
Method: The assay was then incubated for a further 2 hrs at room temperature before reading on an Envision plate reader (PerkinElmer) using a standard homogeneous time resolved fluorescence (HTRF) read protocol.
The final assay volume was 20 ul and all reagents were prepared in an assay buffer comprising MOPS pH7.4 (50 mM), potassium fluoride (0.4M), tween 20 (0.1%) & fatty acid free BSA (0.1%). The assay was performed in low volume 384 well black assay plates (Costar 3676).

[3] = molecular target: T3, Human Amyloid Beta 1-40 peptide (human); assay: HTRF peptide competition: dilution series of unlabelled peptide against 5 nM biotinylated human Amyloid beta 1-42 peptide for 0.3 nM Abet0007 IgG2 (section 1.6)
T3 construct: synthetic, unlabelled; also called unlabelled human Amyloid beta 1-40
Method: as §1, §2

[4] = molecular target: B2; assay: HTRF peptide competition against biotinylated human Amyloid beta 1-42
Method: as §1, §2

[5] = molecular target: T4, Human Amyloid Beta 1-43 peptide (human); assay: as above
T4 construct: synthetic, unlabelled; also called Abeta 1-43
Method: as §1, §2

[6] = molecular target: T5, Human Amyloid Beta 1-42 peptide (human); assay: SPR (BIAcore T-100), peptide over amine-coupled IgG, 1:1 Langmuir fit, mean
T5 construct: synthetic, unlabelled; also used here for the endogenous peptide of human plasma in the depletion assay; also called unlabelled human Amyloid beta 1-42; synthetic human Amyloid beta 1-42 peptide
Method: The chip surface was regenerated between cycles by a single 40 second injection of 10 mM Glycine pH 2.0 to remove ligand bound to the antibody.
Blank reference flow-cell data were subtracted from each IgG dataset and a zero-concentration buffer blank was double-reference subtracted from the main data set to reduce the impact of any buffer artefacts or non-specific binding effects. An appropriate binding model was then fitted simultaneously to the data from each analyte titration using the BIAevaluation software.
These parameters were derived from a 1:1 Langmuir fit to the data.

[7] = molecular target: T1, Biotinylated Human Amyloid Beta 1-42 …; assay: HTRF epitope competition; competitor Abet0144-GL IgG1-TM
[8] = molecular target: T1, Biotinylated Human Amyloid Beta 1-42 …; assay: SPR (ProteOn), scFv over immobilised biotinylated peptide
Method: These experiments were performed essentially as described by Karlsson et al. (Karlsson et al., 1991). For further details see section 1.7.
The chip surface was regenerated between cycles by a single 60 second injection of 10 mM Glycine pH 2.0 to remove scFv bound to the peptide.
Each scFv at 100-200 nM was sequentially passed over the peptide surface for a sufficient amount of time to observe sensorgrams that could be fitted to an appropriate binding model with confidence. An irrelevant scFv blank was subtracted from the main dataset to reduce the impact of any buffer artefacts or non-specific binding effects. An appropriate binding model was then fitted to the data.

[9] = molecular target: T6, Amyloid beta plaques on human Alzheimer's Disease brain sections (human, UniProt P05067 672-713); assay: in vitro immunohistochemistry, core plaques
T6 construct: mixture of Amyloid beta species in tissue; also called native Amyloid beta; human AD brain sections

T3 sequence (peptide, as listed by the source): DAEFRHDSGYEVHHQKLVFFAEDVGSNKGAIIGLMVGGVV
Sequence of Abet0380-GL IgG1-TM (VL, as listed by the source): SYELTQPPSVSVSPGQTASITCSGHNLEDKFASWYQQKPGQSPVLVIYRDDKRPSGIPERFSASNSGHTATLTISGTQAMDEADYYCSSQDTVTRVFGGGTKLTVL
T4 sequence (peptide, as listed by the source): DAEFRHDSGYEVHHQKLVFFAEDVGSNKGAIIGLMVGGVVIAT

Binder: B1
- Kd [1]: 33.2 nM
- koff [1]: 0.00666 s⁻¹
- kon [1]: 201000 M⁻¹ s⁻¹
- IC50 [2]: 5.5 nM

Binder: B2
- binding result (Abet0007 IgG2): binds

Binder: B3
- binding result (Abet0144-GL IgG1-TM): no binding (tested: 1e-5 M (logM -5))
- binding result (Abet0380-GL IgG1-TM): no binding (tested: 1e-5 M (log M -5))

Binder: B4
- binding result [3]: no binding (tested: about 2.5e-6 M (Log M about -5.6))
- binding result [4]: binds
- binding result [5]: binds
- Kd [6]: 473 nM
- koff [6]: 0.074 s⁻¹
- kon [6]: 160000 M⁻¹ s⁻¹

Binder: B5
- IC50 [7]: 0.66 nM
- Kd [8]: 0.354 nM
- koff [8]: 7.97e-05 s⁻¹
- kon [8]: 225000 M⁻¹ s⁻¹

Binder: B6
- plaque staining score (0-4) [9]: 3

Binder: B7
- IC50 [2]: 159 nM
